Measurements taken from the DeepSol protein solubility set.

Test: soluble on expression in E. coli; label from the status in PepcDB or PDB records

Row | Sequence | soluble on expression in E. coli
1 | MSLSVAVSPLAPKSYPDMPALRGVRMATAAAGIKYKNRTDVLLMVFDKPASVAGVFTKSKCPSAPVDFCRANLGSGAARAVVVNSGNANAFTGVKGKAATELTAKSAAAAVGCSEGEIFLASTGVIGEPLDASKFAGVLGDMNVRAEADFWQEAAKAIMTTDTYPKVSTRTAEIGGVIVTINGISKGAGMIAPDMATMLSFVVTDADIEPAALQSLLSAGVGPTFNSVTVDSDTSTSDTLMLFATGAAAEDGQVKVTSADDERLSSFRAALNDLLKDLALQVVRDGEGARKMVEVTVTGAENDAAAKKIALSIANSPLVKTAVAGEDANWGRVVMAVGKSGEMADRDRLAIWFGGVRVAVNGERDPDYSEAETTAVMRLEDITVKVDIGLGQGTATVWTCDLTKEYVAINGDYRSEGHHHHHH | not soluble
2 | VEYSKDRLEMEIVMAAERLDITEECIRFSSHNKFFIEELNNSSSGSGRKLNFLLQEQLREANTIASKSQNADISQKVVHIKEELEKVREQLQNIE | not soluble
3 | MHKNGKFIPLLALGFTFFLSGCDYFADKHLVEEMKEQQKEQETKINLLEKQQKEQEAKINLLEKQQATIINTTKKVTEVVGRVERKQRLFDYTELDPSQTHYFIINNGNIGLAGRILSIEPIDNGSVIHLDLVNLLSIPVSNLAFNMTWGTKKPSEAKDLPRWKQLLLNTKMDSTIELLPGAWTNVTLTLKGVSPNNLKYLKIGIDMENVIFDSIQPINDTKKKPKK | not soluble
4 | RVEVGGSGDAAAVLGLGAVLQGQGQGTSPSPSGLRPQPEAALPPLERLPKPVLVQVASRCRRNDSRSPTHRKITRGAVGLFHPQLYLSGGNCIECGNEMMSRGKFERLAGTATAKWHVSIKVLPSGVTLGKWLQQHGLPILQGEPRQWRRPRCPCATSCAARCRRASNRRK | not soluble
5 | MGSDKIHHHHHHMALALTLREYEFSVLLLEARELPEKVDDPRPLALSYGSRLILQRLDIWKNLTQPAPITTIHISNRGHFGHAVLTPDDAGVPALGYVVNYHDLYHSMGRAIRGSNAVYQTNALVTAIRTDLSLAQVAYQQGSTTRQVRARLLVLADGGKLAEQIDGVRYHTYDYQQTAIVANVKVESPRPGTAFERFTLNGPLALLPSGEGYALVWTMPAAAAEKILKLDDRSFLLHLHEQFGDRMGEFTHVGPRSSFPLILKHASTITGHRAVLIGNAAQALHPVAGQGFNLGLRDAWELASEISRIPSGTPGEPGSTRMLAAYSRRRQSDKRISRLFTDSLVKLFTADLPLVQTCSGMGLAALDNLPPARRLIAHQMIFGTKGWFIG | not soluble
6 | MSLSSKRDIEANTDLNSITYIPTFPEPFERDNSHTTASFVSIQIRLLVASVTEENFLDTEHQIYYLLQRGSFSVYISYWKLLIQLFVNEFEAQQQKRDLNLPFRFDFSNLVHRLLYNLAQELITRTPDTIEKVKELALPLSGKYPIRPLFLSFLNKDNESDSAIIEALNPEVHPIFTTLKDLHRTNMSVSNITQNLFAVENKPNFLTMLSEFLKPLQGETLNDWIALILSEILAPGSQTSNQPSQPWIVQVPNVDVREVIEATEMGTKVNGIIKSLGTNNVNWNRVFNLMSTKFFLNKPVNATLSSLNYLFCILNSGPLVDQFFACDWSLYFKLRLSFLMYQWNYNSECLDLSSLPNIKKINKSIPLTKKSQLSLISVGKLNIELFLSRDEISKNPLFSSFHASFSEAYNNVPEYLAAVLISESKYFSLLVDNKSIIDELLISLVIKTYENNVIAFKELLKLVSKQKVIEVSRGIIASQNAQTINLVQALHDLGILDEVFEKLPIRDSLKLSPTAMHLGYLKFSEYIERNITLKTFVPTLDFIEAQTNIDELDEGHHHHHH | not soluble
7 | MLSSPLRVAVVCVSNINRSMEAHSILRRKGLSVRSFGTESHVRLPGRRPNHPVVYDFATTYKEMYNDLLRKDRECYTHNGILHILGRNERIKPGPERFQECTEFFDVIFTCEERVYDTVVEDLCSREQQTFQPVHVINMDIKDTLEGAILGAFLICEICQCLQQSDDMEDSLEELLLQMEEKAGKSFLHTVCFYLEHHHHHH | soluble
8 | MGSDKIHHHHHHMNKDLFISSFDHRVYKKQPLAERMRPHSLNDVTGQSHLVGEKGLLSRIVAAGSIGSMIFWGPPGTGKTTVARLLALETNFAFEQVSAIFTGVAELKKIFESAQARFMSGSQTVLFVDEIHRFNRAQQDSFLPVMEDGTVILIGATTENPSFELNAALLSRARVLTFLPHDNESLGMLLKRAEALEEKTLPLDDNARDVLIDMSDGDARAALTLAEEVWSVARPGEIFDAAALRKIVQRRAPIYDKGRDGHYNLISALHKSVRGSDPDAALYYLARMFDAGEDPLYIGRRLVRMAVEDVGLADPQALVICNAAKDAYDYLGSPEGELALAQACLYVATAPKSNATYLAYKAAMRCARKNGSLPPPKHILNAPTKFMKEEGYGHGYCYDHDEPDAFSGQEYFPEKLGRQSYYQPVERGFEREIAKRLEWWKQLRKKRANQK | not soluble
9 | MSPAITRKRFIAGAVCPACSEQDKIQMWEEDGVPHRECVACGYADTLNAQGQSIPKELGTRVNQNAPKPANPKVQSVQFFPNPKLKKKPDA | not soluble
10 | MGSDKIHHHHHHMMIQYPKLTISDRLNQHRERLPLADLQETFKESWTVNEKWQVTFAITDSLAYEQAIKLLDVQNIVHYDGQSYVIIQCTKTVSGGVSVYEVTASHLFYRLANNARQNNVKTGTLTYGLSEAVNFMLDNNDQGLTAKFIGDFPRIKIENLGNSSFNKFLQDYTSKFDASYVIDNQQIIFYSATYLKHQPVIDTLFYQHDVENVKLSLDTTSLANEVRCLGKPIDKSSGNNDSQTKYQVDFTYRDDASIQKWGLQRGDPLSDERFTDQGSMTEYARQTVQAQPIATLTTTAWNVTIKQCETVKLVMPNLDWQTTVALNGYERNPFNQFSLPTITFDNASLAVNDINVAMFKHITNAHNHVGKTMVQLMAALGDIQNGDLITDEDTIDKLNELGGIS | not soluble
11 | MSALPPVYSFPPLYTRQPNSLTRRQQISTWIDIISQYCKTKKIWYMSVDGTVINDNELDSGSTDNDDSKKISKNLFNNEDIQRSVSQVFIDEIWSQMTKEGKCLPIDQSGRRSSNTTTTRYFILWKSLDSWASLILQWFEDSGKLNQVITLYELSEGDETVNWEFHRMPESLLYYCLKPLCDRNRATMLKDENDKVIAIKVV | soluble
12 | MKVWIKASALLTLAGLTACSASPTGRNQILMFSDQEMSSLGAKSFDQMKKDIPISKDKKTNAYVQCVAKQITNAIPPQAGFKDWEVVVFDSDQVNAFALPGGKIGVYTGLLKVAKNQDQLATVIGHEVAHVLAEHSNERLSQSQLANAGLSLANVAIGASEYKQYQQLTMAALGVGVQYGVILPYGRTQESEADIVGLEYMAKAGFNPNQSVDLWKNMSAASGGAQPPEFFSTHPSHSTRIKDLQATINKLPKYNVKAPKCGLEHHHHHH | not soluble
13 | MSEKLQKVLARAGHGSRREIESIIEAGRVSVDGKIAKLGDRVEVTPGLKIRIDGHLISVRESAEQICRVLAYYKPEGELCTRNDPEGRPTVFDRLPKLRGARWIAVGRLDVNTCGLLLFTTDGELANRLMHPSREVEREYAVRVFGQVDDAKLRDLSRGVQLEDGPAAFKTIKFSGGEGINQWYNVTLTEGRNREVRRLWEAVGVQVSRLIRVRYGDIPLPKGLPRGGWTELDLAQTNYLRELVELPPETSSKVAVEKDRRRMKANQIRRAVKRHSQVSGGRRSGGRNNNGLEHHHHHH | not soluble
14 | MGSSHHHHHHGKTIFVIVPTNEEQVAFLEALAKQDELNFDWQNPPTEPGQPVVILIPSDMVEWFLEMLKAKGIPFTVYVEEGGSENLYFQGGGGGGRAAGTGDFTAAQRTNTLAVLQAFGRAIPKLGEKWAGNDFCSWEAVLCNAPDVYVSGISPTYAGTLPEMPVNVDYRHVVIKQLDFSEMGPGLSGTLPASWHSMTSLESLSIEKCESISGSVPPEWGSMTSLSVLNLRGTGISGTLPPQWSGMSKARSLQLQDCDLSGSLPSSWSAIPMLASVSLKGNKFCGVCRTRGIRRLVLLWTSRTSTRAATAWLLRTAQRPPLSPPPRQRPPRTSLTFPLRRGPRLSRLPQPALRHRLNPQPPLRHRLNPRPLLPQQTRRLLHQRRSARWMGVRCARGTPLRGARGAVRTTS | not soluble
15 | MSLNTQQGLDEIERIAADETVVANVESEAEVKMAETIPVETPPAVVPSVDDSSLYIHRELSQLQFNIRVLEQALDESYPLLERLKFLLIFSSNLDEFFEIRIAGLKKQITFAREQAGADGLLPHQALARISELVHEQVSRQYRILNETLLPELAKHQIRFIRRRHWTLKIKTWVRRFFRDEIAPIITPIGLDPTHPFPLLVNKSLNFIVELEGMDAFGRDSGLAIIPAPRLLPRIIRLPEDVGGEGDNYVFLSSMIHAHADDLFPGMKVKGCYQFRLTRNADLSVDTEDVEDLARALRGELFSRRYGDAVRLEVVDTCPQNLTNYLLKQFGLSESELYKVSGPVNLTRLFSVTGLESHPELQYPPFTPAIPRLLQKKENLFNVLSKLDVLLMHPFESFTPVIDLLRQAAKDPNVLAIKQTLYRSGANSEIVDALVEAARNGKEVTAVIELRARFDEESNLQLASRLQQAGAVVIYGVVGFKTHAKMMLILRREDGELRRYAHLGTGNYHAGNARLYTDYSLLTADVALCEDLHKLFNQLIGMGKTLRMKKLLHAPFTLKKNLLEMINREAAQAALGQPAHIMAKVNSLTDPKVIRALYKASQAGVRIDLVVRGMCCLRPGIPGVSHNIHVRSIIGRFLEHSRIYYFLNGGDEKLYLSSADWMERNLDMRVETCFPVEGKKLVQRVKKELETYLTDNTQAWVLQADGSYQRLSPTGNQNPRNTQATLLEKLAAPVLTAREGHHHHHH | soluble
16 | MGSDKIHHHHHHYKKKFSGEILCAALWGVNLLIGTDSGLMLLDRSGQGKVYPLISRRRFDQMTVLEGQNILATISGRKRRIRVYYLSWLRQKILRTEGAGSANTTEKRNGWVNVGDLQGAIHFKIVRYERIKFLVVGLESSIEIYAWAPKPYHKFMSFKSFGSLSHVPLIVDLTVEDNARLKVLYGSTGGFHAIDLDSAAVYDIYTPAQSGQTTTPHCIVVLPNSNGMQLLLCYDNEGVYVNTYGRMTKNVVLQWGEMPSSVAYISTGQIMGWGNKAIEIRSVDTGHLDGVFMHKKAQKLKFLCERNDKVFFSSAKGGGSCQIYFMTLNKPGLTNW | not soluble
17 | MGSDKIHHHHHHAQSDGWSPKDHNLIKSVREDGRFLSSYGVVHAMLRNTEPRYAFHRDFSPKEFRKWQKGLRHAMEEIMKFPQIKNSPAPVCIKREQREGYRLEKWEFYPLPKCVSTFLVLIPDNINKPVPAILCIPGSGGNKEGLAGEPGIAPKLNDRYKDPKLTQALNFVKEGYIAVAVDNPAAGEASDLERYTLGSNYDYDVVSRYLLELGWSYLGYASYLDMQVLNWMKTQKHIRKDRIVVSGFSLGTEPMMVLGTLDTSIYAFVYNDFLCQTQERAEVMTMPDKNGRRPFPNSIRHLIPDFWKNFNFPDIVAALAPRPIILTEGGLDRDLDLVRKAYAIVGTPDNVKIYHYKKFSDPDTRKNVEYLPEGLDRNEYFRMVNVDGPNHYFKSELVVPWLRKLLEER | not soluble
18 | MGNRKKKCGIVTFHSSHNYGSVLQAYAMVRVMQKMGLDAELIDFRHPRTTDMYEWRLWSTYKNWKWNLRELVLRGLFSFGKKREQVFSDFIENVLKKSKRVKDKNDIPDIYDILVCGSDQIWNPKASGENDPIYYLDFGTTTCKFSYAASSGSVRFGDENPELFKKYLQNLKSIGVRERFMQEYIKEELGLVSEINPDPTFLLNASEWSEIEKPYKGLPDNYLLIYTIKRPKETINFAHQVAVSLNLPTVQICNDRDLNALMHKDVDYRLMNVSPQQFLWLFHHASFIVTNTFHGNMFSVIYRKNFVHYGINSSDTRISTLHDEIRLKNKIVSSFEIDQRIIDYNLIEENVAYYCKCGLNFIQANINDD | not soluble
